Results published in article PMC8844822, “SARM1 is a multi-functional NAD(P)ase with prominent base exchange activity, all regulated bymultiple physiologically relevant NAD metabolites” (iScience, 2022).

System: T1, NC(=O)c1ccc[n+]([C@@H]2O[C@H](COP(=O)([O-])OP(=O)(O)OC[C@H]3O[C@@H](n4cnc5c(N)ncnc54)[C@H](O)[C@@H]3O)[C@@H](O)[C@H]2O)c1
T1 construct: a soluble fragment Val43-Ile300 with 6x-His tag at C terminus; 6xHis (C); purchased R&D Systems
Experiment: NAD(P)ase activity by HPLC (kinetics, substrates, metal ions)
Type: biochemical, human
Conditions: other: hCD38, substrate as labelled, 25°C, pH 7.5
Method: hSARM1 species were routinely assayed by the NAD/NADH-Glo^TM Assay (Promega) while both Aplysia cyclase and CD38 were assayed by fluorometry using ϵNAD ([Orsomando et al., 2000]). […] Other reagents used in addition to, or in place of those above are detailed in text or in figure legends, for example metal ions, free bases, dinucleotide analogues, mononucleotides, and ribosides. Assays were all carried out at 25°C except for temperature studies. Reactions were stopped by HClO4/K2CO3 and analysed by C18-HPLC as reported ([Mori et al., 2014]). Only the acid labile NADH and NADPH were treated with 1 N NaOH and neutralized using 1:1 vol of 1.73 M KH2CO3 while the highly hydrophobic metabolites vacor, VAD, VMN and VR, were analysed by a modified C18-HPLC method ([Buonvicino et al., 2018]). Reaction products were quantified from peak areas (see Figure 2A) based on coelution with standards (except for cyclic products from NAD analogues that were not available and were attributed based on UV-spectra and retention times as predicted). Rates were calculated as follows. Hydrolysis and cyclization were measured from product generation from the respective individual dinucleotide substrate used, e.g., free and cyclic ADP-ribosyl moieties from NAD (Figure 1B). A basal value for hydrolysis/cyclization was taken as sum of these latter two products. […]

human CD38 (Homo sapiens)
Km: 10.4 ± 2.90 µM | Vmax: 6.65 µmol/min/mg
